One experiment deals with FcRn (UniProt P55899). The experiment in a line: SPR. (In SPR one partner is held on a chip, and binding of the other changes the refractive index at the surface.)
A further experiment deals with FcγRIIIA_(V158). Briefly: SPR.
The target of another experiment is FcγRIIIA_(F158) (UniProt P08637). Briefly: SPR.
A further experiment addresses FcγRI (UniProt P12314). Briefly: SPR.
The target of a further experiment is FcγRIIA_(H131) (UniProt P12318). Briefly: SPR.
For a further experiment, the target named is human Claudin18.2 (Homo sapiens, UniProt P56856-2). Briefly: flow cytometry on cells. For orientation: Flow cytometry measures light scatter and fluorescence of single cells or particles in a stream.

As usually defined, the Kd is the free concentration of one partner at which half of the binding sites on the other are occupied at equilibrium, for simple one-to-one binding. As a reminder, the EC50 is the concentration that produces a half-maximal response. The low end stands for greater potency, the high end for weaker potency.

FcγRIIIA_(F158), sequence (P08637 17-254): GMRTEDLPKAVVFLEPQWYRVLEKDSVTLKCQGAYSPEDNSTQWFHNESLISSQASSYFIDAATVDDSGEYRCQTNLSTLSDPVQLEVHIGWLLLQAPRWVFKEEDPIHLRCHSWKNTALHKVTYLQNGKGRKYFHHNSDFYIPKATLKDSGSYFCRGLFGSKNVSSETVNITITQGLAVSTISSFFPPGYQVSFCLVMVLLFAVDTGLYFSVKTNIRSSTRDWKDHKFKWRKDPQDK
FcγRIIA_(H131), sequence (P12318 34-317): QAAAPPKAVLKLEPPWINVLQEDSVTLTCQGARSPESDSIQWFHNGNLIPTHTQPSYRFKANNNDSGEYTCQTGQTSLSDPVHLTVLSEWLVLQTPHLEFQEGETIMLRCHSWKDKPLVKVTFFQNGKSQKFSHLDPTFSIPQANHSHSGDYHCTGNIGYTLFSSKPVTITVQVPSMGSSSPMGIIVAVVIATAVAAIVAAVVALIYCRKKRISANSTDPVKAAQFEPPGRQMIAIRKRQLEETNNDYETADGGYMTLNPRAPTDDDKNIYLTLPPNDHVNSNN
FcRn, sequence (P55899 24-365, chain 1 of 2): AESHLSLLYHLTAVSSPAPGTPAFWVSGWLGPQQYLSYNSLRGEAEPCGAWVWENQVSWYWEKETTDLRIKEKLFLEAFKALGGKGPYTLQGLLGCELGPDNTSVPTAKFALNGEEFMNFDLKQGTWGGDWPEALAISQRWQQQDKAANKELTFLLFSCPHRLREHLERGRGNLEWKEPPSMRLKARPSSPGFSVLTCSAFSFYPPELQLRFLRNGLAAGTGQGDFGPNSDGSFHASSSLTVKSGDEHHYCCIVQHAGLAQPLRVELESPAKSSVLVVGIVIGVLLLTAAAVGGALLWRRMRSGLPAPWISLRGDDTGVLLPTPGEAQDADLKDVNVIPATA
FcRn, sequence (P61769 21-119, chain 2 of 2, further chain): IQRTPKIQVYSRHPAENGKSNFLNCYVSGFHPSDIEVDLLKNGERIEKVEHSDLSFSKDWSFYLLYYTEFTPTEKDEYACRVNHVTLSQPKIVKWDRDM
FcγRIIIA_(V158), sequence (P08637 17-208): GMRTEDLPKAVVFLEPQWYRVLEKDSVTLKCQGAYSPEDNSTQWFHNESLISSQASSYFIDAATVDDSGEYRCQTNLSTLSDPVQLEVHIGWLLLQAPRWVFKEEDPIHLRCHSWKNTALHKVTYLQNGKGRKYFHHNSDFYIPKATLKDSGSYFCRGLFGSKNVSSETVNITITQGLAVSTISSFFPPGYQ
FcγRI, sequence (P12314 16-374): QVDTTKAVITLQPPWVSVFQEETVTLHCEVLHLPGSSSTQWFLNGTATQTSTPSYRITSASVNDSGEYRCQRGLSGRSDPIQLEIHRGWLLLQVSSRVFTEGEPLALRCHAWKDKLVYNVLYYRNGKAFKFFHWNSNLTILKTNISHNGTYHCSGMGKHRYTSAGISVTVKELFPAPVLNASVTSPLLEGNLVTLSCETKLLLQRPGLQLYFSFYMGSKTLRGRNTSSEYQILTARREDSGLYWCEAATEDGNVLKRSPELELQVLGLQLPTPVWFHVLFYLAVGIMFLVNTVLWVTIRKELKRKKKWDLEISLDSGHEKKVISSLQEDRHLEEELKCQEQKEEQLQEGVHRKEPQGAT

For CM311 (antibody), the Kd was found to be 1.53 µM in the experiment with FcRn; 0.0789 µM with FcγRIIIA_(V158); 0.33 µM in the experiment with FcγRIIIA_(F158); 0.00723 µM with FcγRI; 2.77 µM with FcγRIIA_(H131).

Turning to CMG901 (antibody), the Kd was 1.73 µM with FcRn; 0.126 µM with FcγRIIIA_(V158); 0.49 µM in the experiment with FcγRIIIA_(F158); 0.00595 µM in the experiment with FcγRI; 6.29 µM with FcγRIIA_(H131).

B1: Zolbetuximab analog (antibody, V domains shown)
VH: QVQLQQPGAELVRPGASVKLSCKASGYTFTSYWINWVKQRPGQGLEWIGNIYPSDSYTNYNQKFKDKATLTVDKSSSTAYMQLSSPTSEDSAVYYCTRSWRGNSFDYWGQGTTLTVSS
VL: DIVMTQSPSSLTVTAGEKVTMSCKSSQSLLNSGNQKNYLTWYQQKPGQPPKLLIYWASTRESGVPDRFTGSGSGTDFTLTISSVQAEDLAVYYCQNDYSYPFTFGSGTKLEIK
On to B1, for which the response in the experiment with human Claudin18.2 was half-maximal at 0.0022 µM (EC50).

Source of the values: article PMC11528232 (Cell Reports Medicine, 2024).
